Test results as given in patent US20200087347 (published 2020).
Where no end group is shown, it is not given here. Side-chain parts run from the residue outwards. [ ]: non-standard residue; d: D form. The star is where a group is joined. BODIPY(FL) = CC1=CC(C)=[N+]2C1=Cc1ccc(CCC(=O)*)n1[B-]2(F)F; NMeK = CN[C@@H](CCCCN)C(=O)O

Tests used:
Test in all cases: competition
integrin α5β1 = integrin α5β1 (human, UniProt P08648)
integrin αvβ5 = biological target: T1, integrin αvβ5 (human, UniProt P06756)
T1 chain 1: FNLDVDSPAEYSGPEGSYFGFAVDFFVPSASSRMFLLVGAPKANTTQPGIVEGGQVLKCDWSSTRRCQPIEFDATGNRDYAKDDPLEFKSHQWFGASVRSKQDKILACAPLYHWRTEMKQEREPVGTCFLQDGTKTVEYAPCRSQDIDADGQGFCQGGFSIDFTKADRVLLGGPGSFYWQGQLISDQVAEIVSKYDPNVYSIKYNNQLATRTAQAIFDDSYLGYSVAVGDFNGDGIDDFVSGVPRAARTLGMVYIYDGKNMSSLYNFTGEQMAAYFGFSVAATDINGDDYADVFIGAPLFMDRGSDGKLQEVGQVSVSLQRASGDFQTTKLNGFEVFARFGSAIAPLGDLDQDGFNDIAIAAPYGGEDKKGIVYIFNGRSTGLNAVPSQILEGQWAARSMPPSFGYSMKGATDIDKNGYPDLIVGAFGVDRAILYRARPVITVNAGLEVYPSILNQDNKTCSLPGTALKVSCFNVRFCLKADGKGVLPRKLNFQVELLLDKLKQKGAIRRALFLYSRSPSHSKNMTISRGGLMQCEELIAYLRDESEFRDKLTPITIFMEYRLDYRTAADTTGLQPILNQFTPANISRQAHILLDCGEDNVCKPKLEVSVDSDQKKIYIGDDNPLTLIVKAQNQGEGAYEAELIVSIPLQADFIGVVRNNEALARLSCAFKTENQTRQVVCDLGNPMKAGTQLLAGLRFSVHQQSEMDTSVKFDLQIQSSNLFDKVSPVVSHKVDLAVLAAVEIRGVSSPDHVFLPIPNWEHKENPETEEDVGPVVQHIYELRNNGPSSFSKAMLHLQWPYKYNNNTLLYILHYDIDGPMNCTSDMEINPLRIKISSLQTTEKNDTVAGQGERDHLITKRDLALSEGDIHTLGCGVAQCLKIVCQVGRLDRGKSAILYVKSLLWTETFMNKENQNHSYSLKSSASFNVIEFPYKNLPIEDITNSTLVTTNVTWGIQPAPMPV
T1 chain 2: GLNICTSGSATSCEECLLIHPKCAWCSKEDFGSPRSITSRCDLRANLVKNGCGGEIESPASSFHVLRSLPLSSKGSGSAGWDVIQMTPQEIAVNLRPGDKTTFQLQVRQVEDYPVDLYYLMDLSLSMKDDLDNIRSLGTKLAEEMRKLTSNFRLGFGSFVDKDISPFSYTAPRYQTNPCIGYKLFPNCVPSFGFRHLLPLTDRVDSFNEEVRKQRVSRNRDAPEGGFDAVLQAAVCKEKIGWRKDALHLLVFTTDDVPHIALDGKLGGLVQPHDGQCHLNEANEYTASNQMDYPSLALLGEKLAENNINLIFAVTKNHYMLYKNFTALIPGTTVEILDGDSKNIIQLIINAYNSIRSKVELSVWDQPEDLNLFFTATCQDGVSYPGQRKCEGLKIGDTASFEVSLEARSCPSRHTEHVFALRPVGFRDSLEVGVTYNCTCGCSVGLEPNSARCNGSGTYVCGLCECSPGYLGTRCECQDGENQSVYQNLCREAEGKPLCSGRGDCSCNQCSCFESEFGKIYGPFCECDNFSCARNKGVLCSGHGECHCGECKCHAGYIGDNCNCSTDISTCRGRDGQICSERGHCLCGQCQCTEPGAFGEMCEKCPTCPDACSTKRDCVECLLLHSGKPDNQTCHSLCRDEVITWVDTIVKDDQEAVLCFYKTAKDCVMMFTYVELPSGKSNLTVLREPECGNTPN

integrin αvβ3 = biological target: T2, integrin αvβ3 (human, UniProt P06756)
T2 chain 1: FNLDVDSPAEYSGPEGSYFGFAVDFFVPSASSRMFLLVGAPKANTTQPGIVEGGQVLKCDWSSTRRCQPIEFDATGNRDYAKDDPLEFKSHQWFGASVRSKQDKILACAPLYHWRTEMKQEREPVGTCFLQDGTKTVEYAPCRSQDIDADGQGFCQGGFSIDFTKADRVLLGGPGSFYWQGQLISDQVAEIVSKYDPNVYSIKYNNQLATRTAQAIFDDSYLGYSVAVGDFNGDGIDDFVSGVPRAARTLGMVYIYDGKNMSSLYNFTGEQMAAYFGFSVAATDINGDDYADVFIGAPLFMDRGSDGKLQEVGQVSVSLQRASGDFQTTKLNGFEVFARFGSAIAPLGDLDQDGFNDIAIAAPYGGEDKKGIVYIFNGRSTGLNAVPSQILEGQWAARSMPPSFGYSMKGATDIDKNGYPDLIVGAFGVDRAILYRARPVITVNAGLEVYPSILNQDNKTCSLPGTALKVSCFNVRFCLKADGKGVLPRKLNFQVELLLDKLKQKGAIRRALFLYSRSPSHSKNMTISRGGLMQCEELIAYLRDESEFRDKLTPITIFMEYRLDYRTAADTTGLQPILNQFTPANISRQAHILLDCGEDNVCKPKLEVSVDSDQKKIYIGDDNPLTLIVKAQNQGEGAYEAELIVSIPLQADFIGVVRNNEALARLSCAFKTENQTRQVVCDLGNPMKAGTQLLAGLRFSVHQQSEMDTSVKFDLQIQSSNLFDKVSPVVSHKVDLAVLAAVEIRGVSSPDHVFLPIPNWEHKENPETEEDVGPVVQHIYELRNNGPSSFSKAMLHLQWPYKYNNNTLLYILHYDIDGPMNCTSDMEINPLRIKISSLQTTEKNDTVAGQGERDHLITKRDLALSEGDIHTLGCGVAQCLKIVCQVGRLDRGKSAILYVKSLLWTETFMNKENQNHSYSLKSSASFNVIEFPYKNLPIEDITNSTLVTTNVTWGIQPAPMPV
T2 chain 2: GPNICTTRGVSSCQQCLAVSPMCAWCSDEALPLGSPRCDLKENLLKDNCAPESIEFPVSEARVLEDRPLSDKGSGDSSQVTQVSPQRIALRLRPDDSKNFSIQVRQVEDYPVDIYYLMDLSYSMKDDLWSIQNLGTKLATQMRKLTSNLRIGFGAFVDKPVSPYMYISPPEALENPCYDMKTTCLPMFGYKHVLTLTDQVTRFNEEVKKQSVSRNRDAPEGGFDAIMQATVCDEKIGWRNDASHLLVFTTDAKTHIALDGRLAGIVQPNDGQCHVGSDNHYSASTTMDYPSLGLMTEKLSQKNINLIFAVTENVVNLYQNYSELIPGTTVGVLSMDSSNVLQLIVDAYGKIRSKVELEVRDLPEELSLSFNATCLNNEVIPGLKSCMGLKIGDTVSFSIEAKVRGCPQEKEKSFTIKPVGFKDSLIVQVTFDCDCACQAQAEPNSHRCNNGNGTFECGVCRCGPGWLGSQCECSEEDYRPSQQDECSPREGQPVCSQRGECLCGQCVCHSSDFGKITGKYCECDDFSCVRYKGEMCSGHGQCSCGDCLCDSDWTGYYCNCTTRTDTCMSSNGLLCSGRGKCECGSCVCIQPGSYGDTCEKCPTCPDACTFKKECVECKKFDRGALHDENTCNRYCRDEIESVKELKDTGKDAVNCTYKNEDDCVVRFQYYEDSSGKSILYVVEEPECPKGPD

integrin αvβ6 = biological target: T3, integrin αvβ6 (human, UniProt P06756)
T3 chain 1: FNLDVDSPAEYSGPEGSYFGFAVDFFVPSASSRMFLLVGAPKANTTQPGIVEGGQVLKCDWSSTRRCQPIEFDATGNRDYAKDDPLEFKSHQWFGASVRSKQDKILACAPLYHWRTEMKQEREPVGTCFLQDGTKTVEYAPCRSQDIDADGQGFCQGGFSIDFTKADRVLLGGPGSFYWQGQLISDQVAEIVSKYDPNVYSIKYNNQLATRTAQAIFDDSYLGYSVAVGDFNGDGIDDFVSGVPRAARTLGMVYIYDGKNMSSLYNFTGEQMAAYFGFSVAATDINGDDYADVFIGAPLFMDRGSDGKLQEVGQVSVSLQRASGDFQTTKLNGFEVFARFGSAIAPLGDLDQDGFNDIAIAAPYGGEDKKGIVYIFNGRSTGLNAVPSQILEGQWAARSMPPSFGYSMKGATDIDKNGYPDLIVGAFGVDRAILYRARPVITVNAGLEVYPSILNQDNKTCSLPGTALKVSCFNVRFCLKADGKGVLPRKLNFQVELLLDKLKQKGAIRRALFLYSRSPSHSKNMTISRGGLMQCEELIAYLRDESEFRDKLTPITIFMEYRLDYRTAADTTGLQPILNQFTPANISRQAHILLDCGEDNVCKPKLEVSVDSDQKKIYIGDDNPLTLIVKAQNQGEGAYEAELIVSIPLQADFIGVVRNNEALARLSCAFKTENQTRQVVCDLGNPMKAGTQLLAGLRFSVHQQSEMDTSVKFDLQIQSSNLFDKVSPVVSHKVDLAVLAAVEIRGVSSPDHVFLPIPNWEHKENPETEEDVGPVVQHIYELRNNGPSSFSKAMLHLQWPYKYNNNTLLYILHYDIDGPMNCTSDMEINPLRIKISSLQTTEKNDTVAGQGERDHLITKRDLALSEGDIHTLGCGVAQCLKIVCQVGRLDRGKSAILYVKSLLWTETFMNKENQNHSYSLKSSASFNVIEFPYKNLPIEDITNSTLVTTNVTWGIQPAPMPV
T3 chain 2: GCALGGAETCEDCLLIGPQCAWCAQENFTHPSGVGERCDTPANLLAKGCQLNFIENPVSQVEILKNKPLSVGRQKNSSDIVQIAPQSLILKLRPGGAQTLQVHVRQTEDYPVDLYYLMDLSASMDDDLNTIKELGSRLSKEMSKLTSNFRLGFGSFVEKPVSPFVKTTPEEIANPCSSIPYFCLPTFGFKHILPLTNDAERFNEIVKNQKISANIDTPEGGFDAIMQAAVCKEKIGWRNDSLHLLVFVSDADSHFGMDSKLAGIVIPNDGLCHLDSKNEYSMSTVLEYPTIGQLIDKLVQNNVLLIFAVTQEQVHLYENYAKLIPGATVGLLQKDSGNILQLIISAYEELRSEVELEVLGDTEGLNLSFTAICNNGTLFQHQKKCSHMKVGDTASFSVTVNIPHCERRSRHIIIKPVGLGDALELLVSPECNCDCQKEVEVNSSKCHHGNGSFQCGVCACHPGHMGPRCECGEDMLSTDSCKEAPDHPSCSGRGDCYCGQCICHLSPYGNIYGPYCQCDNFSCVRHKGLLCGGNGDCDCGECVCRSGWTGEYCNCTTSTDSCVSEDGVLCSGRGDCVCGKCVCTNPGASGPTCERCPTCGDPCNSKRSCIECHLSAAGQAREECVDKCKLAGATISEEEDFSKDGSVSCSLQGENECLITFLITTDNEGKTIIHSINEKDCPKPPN

integrin αvβ8 = biological target: T4, integrin αvβ8 (human, UniProt P06756)
T4 chain 1: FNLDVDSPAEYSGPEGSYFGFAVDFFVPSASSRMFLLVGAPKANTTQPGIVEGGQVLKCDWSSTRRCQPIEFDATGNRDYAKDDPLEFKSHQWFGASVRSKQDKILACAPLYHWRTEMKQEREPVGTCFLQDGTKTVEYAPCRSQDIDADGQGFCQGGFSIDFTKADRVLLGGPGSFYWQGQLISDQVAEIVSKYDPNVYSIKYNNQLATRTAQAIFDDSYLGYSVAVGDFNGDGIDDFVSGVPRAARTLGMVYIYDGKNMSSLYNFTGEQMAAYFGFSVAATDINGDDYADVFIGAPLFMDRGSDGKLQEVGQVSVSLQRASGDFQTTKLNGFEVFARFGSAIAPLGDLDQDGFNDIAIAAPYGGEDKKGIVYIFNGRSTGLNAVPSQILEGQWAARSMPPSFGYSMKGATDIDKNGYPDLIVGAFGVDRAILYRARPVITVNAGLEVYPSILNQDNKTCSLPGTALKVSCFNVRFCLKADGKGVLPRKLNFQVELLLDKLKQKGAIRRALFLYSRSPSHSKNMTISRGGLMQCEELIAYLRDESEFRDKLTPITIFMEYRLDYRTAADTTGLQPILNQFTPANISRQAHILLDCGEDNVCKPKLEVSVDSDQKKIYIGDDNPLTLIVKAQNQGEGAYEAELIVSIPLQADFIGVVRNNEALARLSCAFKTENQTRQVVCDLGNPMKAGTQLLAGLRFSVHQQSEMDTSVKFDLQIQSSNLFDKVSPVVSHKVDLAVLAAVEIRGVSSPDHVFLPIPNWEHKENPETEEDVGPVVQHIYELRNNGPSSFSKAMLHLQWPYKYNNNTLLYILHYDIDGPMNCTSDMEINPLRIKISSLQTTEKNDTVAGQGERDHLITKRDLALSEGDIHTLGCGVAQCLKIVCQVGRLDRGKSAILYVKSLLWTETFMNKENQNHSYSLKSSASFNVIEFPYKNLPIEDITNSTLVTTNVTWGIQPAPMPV
T4 chain 2: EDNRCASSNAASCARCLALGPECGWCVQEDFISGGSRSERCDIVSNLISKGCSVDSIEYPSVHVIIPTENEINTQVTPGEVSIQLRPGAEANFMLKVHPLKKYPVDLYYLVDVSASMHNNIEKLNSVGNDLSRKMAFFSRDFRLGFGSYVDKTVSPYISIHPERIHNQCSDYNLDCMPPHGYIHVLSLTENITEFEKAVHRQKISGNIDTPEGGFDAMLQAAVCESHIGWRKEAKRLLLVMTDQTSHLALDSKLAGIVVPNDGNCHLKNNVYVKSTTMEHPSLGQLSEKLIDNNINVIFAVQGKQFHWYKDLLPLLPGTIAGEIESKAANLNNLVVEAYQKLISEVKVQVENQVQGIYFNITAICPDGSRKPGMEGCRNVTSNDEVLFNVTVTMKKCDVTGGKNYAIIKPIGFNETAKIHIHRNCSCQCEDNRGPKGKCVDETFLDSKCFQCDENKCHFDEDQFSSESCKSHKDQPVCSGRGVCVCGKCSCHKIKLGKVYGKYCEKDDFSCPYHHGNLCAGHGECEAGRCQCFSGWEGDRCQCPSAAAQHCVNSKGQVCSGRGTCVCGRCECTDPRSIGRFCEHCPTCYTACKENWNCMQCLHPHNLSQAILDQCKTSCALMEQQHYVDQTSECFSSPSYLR

Sequence of integrin α5β1 (P08648 42-1049, chain 1 of 2): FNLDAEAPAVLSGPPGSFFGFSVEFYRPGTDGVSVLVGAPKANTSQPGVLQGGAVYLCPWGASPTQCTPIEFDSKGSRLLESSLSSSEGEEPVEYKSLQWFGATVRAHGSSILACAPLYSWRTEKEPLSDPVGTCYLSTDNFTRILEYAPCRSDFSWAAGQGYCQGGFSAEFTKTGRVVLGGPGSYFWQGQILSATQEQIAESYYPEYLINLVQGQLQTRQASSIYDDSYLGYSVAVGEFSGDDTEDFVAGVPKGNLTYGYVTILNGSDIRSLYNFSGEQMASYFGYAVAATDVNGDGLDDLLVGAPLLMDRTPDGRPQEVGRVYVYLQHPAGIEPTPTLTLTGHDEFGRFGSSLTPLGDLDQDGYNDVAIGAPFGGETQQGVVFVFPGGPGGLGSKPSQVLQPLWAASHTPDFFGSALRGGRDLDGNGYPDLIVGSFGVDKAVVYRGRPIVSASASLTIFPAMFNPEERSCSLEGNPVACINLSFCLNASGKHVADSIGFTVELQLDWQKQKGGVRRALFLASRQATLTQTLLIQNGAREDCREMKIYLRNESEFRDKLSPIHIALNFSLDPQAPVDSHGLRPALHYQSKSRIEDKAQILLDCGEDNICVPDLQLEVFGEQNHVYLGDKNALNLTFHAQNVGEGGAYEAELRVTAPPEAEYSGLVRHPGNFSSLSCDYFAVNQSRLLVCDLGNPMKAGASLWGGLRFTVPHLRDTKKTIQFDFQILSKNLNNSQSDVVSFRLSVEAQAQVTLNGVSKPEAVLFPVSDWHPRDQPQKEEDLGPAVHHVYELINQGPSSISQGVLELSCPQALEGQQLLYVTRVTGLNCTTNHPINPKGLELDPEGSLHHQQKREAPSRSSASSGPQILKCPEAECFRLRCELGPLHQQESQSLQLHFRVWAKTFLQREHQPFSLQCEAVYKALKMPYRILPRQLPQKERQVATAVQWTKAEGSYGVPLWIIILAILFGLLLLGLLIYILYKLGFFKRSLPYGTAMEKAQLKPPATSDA
Sequence of integrin α5β1 (chain, as listed by the source, chain 2 of 2): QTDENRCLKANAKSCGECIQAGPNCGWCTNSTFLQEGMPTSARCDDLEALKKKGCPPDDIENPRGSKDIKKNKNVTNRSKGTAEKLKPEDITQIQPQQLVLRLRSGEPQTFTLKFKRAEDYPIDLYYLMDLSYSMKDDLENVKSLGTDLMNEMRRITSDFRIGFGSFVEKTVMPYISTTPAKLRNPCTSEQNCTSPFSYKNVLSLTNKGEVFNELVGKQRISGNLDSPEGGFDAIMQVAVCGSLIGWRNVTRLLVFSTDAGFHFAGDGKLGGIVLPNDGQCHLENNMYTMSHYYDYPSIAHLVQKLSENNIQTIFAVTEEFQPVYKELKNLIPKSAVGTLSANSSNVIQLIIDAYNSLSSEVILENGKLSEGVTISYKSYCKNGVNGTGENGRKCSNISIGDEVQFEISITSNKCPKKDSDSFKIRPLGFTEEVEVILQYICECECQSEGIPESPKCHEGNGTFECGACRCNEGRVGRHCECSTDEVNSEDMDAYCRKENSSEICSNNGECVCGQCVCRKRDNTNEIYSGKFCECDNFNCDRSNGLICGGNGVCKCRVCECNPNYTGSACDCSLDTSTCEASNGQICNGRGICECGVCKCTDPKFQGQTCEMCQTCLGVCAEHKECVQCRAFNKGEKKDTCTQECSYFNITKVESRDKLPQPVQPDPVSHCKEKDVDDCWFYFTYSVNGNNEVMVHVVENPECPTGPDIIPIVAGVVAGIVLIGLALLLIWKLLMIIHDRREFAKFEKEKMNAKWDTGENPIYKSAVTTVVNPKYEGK

IC50 (integrin α5β1): 979 nM | IC50 (integrin αvβ5): > 10000 nM | IC50 (integrin αvβ3): 585 nM | IC50 (integrin αvβ6): 247 nM | IC50 (integrin αvβ8): 2.07 nM
B1: Compound 9e (9-G(P)3G-BDPFL) (peptide)
chain: RGDL[dP][NMeK]([Gly-Pro-Pro-Pro-Gly-BODIPY(FL)])GL
modifications: not fully specified (bridges); also: cyclic, closure not given here
